Tests used:
[1] = target: human recombinant biotinylated FcRn (neonatal Fc receptor) (human) (UniProt P55899); experiment: SPR; ProteOn XPR36; biotinylated human FcRn immobilised on an NLC chip, IL-12Fc variants or control antibodies as analytes (0-6075 nM); histidine buffer (20 mM histidine, 150 mM NaCl, 0.05% Tween 20) pH 6.0; KD from binding equilibrium analysis; values of Figure 2B (for WT and NHQ those of the channel labelled 100-115 RU in the sheet of Figure S2C)
[2] = target: human recombinant biotinylated FcRn (neonatal Fc receptor) (human) (UniProt P55899); experiment: SPR; as a1, channel L2, FcRn coating density labelled 250-260 RU; WT 365-4.5 nM, NHQ 3645-45 nM; pH 6.0; equilibrium analysis
[3] = target: human recombinant biotinylated FcRn (neonatal Fc receptor) (human) (UniProt P55899); experiment: SPR; as a1, channel L1, FcRn coating density labelled 550-600 RU; WT 365-4.5 nM, NHQ 3645-45 nM; pH 6.0; equilibrium analysis
[4] = target: human recombinant biotinylated FcRn (neonatal Fc receptor) (human) (UniProt P55899); experiment: SPR; as a1, channel L5, FcRn coating density labelled 30-35 RU; WT 365-4.5 nM, NHQ 3645-45 nM; pH 6.0; equilibrium analysis
[5] = target: human recombinant biotinylated FcRn (neonatal Fc receptor) (human) (UniProt P55899); experiment: SPR; as a1, channel L4, FcRn coating density labelled 75-80 RU; WT 365-4.5 nM, NHQ 3645-45 nM; pH 6.0; equilibrium analysis
[6] = target: human recombinant biotinylated FcRn (neonatal Fc receptor) (human) (UniProt P55899)

**Q.** With Control IgG1 (antibody) as the substance, how does the Kd [1] read?
**A.** 218 nM

**Q.** Which results are given for IL-12Fc WT (IHH) (Fc fusion)?
**A.** Kd [1]: 101 nM; Kd [2]: 60.1 nM; Kd [3]: 216 nM; Kd [4]: 445 nM; Kd [5]: 186 nM

**Q.** How did the Kd [1] turn out when IL-12Fc WT S228P (Fc fusion) was run?
**A.** 182 nM

**Q.** Which residual brain level of IL-12Fc WT 6 h after CED in hFcRn Tg32 mice given the FcRn inhibitor MST-HN Fc (100 ug i.v.) beforehand [6] does the source give for “human IL-12Fc WT (IHH), single-chain IL-12 fused to human IgG4 Fc (Fc fusion)” here?
**A.** > 50%

**Q.** With Control IgG4 (antibody) as the substance, how does the Kd [1] read?
**A.** 343 nM

**Q.** How did the IL-12 level in the ipsilateral brain hemisphere 6 h after CED of 1 ug into the striatum of hFcRn Tg32 mice, compared to the IAQ and AAA variants and WT IL-12Fc [6] turn out when “human IL-12Fc NHQ (I253N H435Q), FcRn-silenced IL-12Fc (Fc fusion)” was run?
**A.** > 30%

— paper PMC12098678
